As usually defined, the stoichiometry N is a count of units in the complex or per binding partner.

This test addresses HCoV-229E nsp15 protein, H250A mutant (recombinant, hexameric) (human coronavirus 229E (HCoV-229E)). Briefly: […] (25 mM HEPES pH 8, 300 mM NaCl, 10% glycerol, 1 mM TCEP); […]; 20 °C; […].

With “HCoV-229E nsp15 protein, H250A mutant (recombinant, hexameric) (enzyme)”, the percent hexameric is more than 98% and the stoichiometry N is 6.
